Measurements: article PMC11519345, “Structural variation of types IV-A1- and IV-A3-mediated CRISPR interference”

Biological target: Type IV-A1 effector complex (Cas5-Cas8-Cas7-Cas6 crRNP), DinG-free;DinG (CasDinG, Csf4) type IV-A1 (Pseudomonas oleovorans;Pseudomonas …, UniProt A0A379PL53;A0A379PIR4;A0A379PIR9;A0A379PNK2;A0A379PL92 …, |)
Experiment: cryo-EM; crRNA; DinG bound; PDB code not assigned in the material; EMSA: 10 mM HEPES pH 7.5, 150 mM NaCl, 1 nM DNA, on ice then 20 min RT, 6% native PAGE in TBE at 4 C; cryo-EM: 10 uM complex + 15 uM DNA in the same buffer, 10
Details: protein: recombinant;recombinant; tags: His6 C-terminal on Cas8;; copies: 1;1;5;1;1; bubble: non-complementary protospacer, paired 15 nt and 14+ nt ends

B1: Type IV-A1 bubbled target DNA (TS/NTS) for cryo-EM (dsDNA)
DNA 1: CGGTCGGGTCATACGTCGCGTCTCGAATCTGATGCGTAACTTGGATGCTTCGTGCGTGATG
DNA 2: CATCACGCACGAAGACCAAGTCAATGCTTAGTCTAATACCTGCGCTCGTATGACCCGACCG
binding result: binds
